From patent US20190117753A1 (VIRGINIA COMMONWEALTH UNIVERSITY, published 2019) come the findings set out here.

The target in this assay is T1, sLe^x-capped PSGL-1 on transfected Chinese hamster ovary cells (PSGL-1 CHO cells) (UniProt Q14242 42-412, sLe^x-capped (sialylated and fucosylated) glycans (so in the source)).
T1 construct: whole, on cells; also called sialylated PSGL-1; sLe^x-modified PSGL-1
T1 sequence: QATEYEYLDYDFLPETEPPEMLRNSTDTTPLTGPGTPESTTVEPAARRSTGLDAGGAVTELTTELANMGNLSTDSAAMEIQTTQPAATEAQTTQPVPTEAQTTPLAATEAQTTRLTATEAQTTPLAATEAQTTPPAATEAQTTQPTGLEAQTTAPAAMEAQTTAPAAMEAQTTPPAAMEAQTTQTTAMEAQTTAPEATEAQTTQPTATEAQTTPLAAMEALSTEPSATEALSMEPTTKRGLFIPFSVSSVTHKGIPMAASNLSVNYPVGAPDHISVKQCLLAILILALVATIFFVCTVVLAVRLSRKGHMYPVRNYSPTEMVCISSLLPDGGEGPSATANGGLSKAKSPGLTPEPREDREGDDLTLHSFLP
Put plainly: PSGL-1 CHO cells preincubated with GST-OmpA; competitor: Aph organisms (data not shown).

B1: GST-OmpA (N-terminal glutathione-S-transferase-tagged A. phagocytophilum OmpA, excluding the signal sequence) (other)
chain: CGTLLPDSNVGVGRHDLGSHRSVAFAKKVEKVYFDIGKYDLKGPGKKVILELVEQLRQDDSMYLVVIGHADATGTEEYSLALGEKRANAVKQFIIGCDKSLAPRVTTQSRGKAEPEVLVYSTDAQEVEKANAQNRRAVIVVEFAHIPRSGVADMHAPVASSITSENSNASAEGEDMEASEFSSAIAN
notes: also called GST-ApOmpA; GST-tagged Aph OmpA; not shown: glutathione-S-transferase (GST) tag, N-terminal, from the pDest-15 vector
On to B1, for which the “reduction of Aph binding to sLe^x-modified PSGL-1 relative to GST alone” value is about 60%.
